Data from PMC5705260.

Columns and labels:
[1] = target: ArtB (Salmonella enterica serovar Typhimurium DT104) (UniProt Q404H3); assay: co-purification of co-expressed subunits
[2] = target: ArtB (Salmonella enterica serovar Typhimurium DT104) (UniProt Q404H3); assay: ion exchange chromatography + SEC
[3] = target: ArtB-His6 (Salmonella enterica serovar Typhimurium DT104) (UniProt Q404H3); assay: crystal structure
[4] = target: PltB-His6 (Salmonella Typhi) (UniProt Q8Z6A3); assay: crystal structure

## ArtB (from UniProt Q404H3 1-141) (natural protein)
[1]
  stoichiometry N: 5
[2]
  stoichiometry N: 5

## ArtB-His6 (from UniProt Q404H3 1-141) (natural protein)
[3]
  stoichiometry N: 5

## PltB-His6 (from UniProt Q8Z6A3 1-137) (natural protein)
[4]
  stoichiometry N: 5
